In patent US20210261648A1 (published 2021):
Substitutions are numbered along the chain they refer to. Names may count otherwise.

T1: FcγRIIa type R extracellular domain with C-terminal His tag (human, UniProt P12318 34-217)
T1 chain: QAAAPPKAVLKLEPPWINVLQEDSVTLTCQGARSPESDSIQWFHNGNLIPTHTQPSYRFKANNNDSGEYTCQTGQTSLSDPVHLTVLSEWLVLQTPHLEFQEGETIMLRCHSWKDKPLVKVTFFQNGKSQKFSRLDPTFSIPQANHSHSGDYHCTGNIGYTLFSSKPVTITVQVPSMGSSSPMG

T2: FcγRIIb extracellular domain with C-terminal His tag (human, UniProt P31994 43-217)
T2 construct: extracellular domain; For crystallography it was expressed with kifunensine and trimmed with Endo F1; also called FcgRIIb; FcγRIIb extracellular region; not shown: His tag attached to the C terminus
T2 sequence (looked up): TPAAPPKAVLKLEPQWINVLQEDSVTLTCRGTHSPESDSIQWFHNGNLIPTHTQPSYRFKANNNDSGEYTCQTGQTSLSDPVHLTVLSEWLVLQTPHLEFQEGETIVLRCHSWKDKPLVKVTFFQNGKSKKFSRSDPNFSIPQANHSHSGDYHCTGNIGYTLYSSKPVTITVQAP

T3: FcγRIIa type H extracellular domain with C-terminal His tag (human, UniProt P12318 34-217)
T3 construct: extracellular domain; also called FcγRIIaH; FcgRIIaH; not shown: His tag attached to the C terminus
T3 sequence (looked up): T1 chain with R134H

B1: IL6R-F652/IL6R-L (antibody, human IgG1, kappa)
heavy: QVQLQESGPGLVKPSETLSLTCAVSGHSISHDHAWSWVRQPPGEGLEWIGFISYSGITNYNPSLQGRVTISRDNSKNTLYLQMNSLRAEDTAVYYCARSLARTTAMDYWGEGTLVTVSSASTKGPSVFPLAPSSKSTSGGTAALGCLVKDYFPEPVTVSWNSGALTSGVHTFPAVLQSSGLYSLSSVVTVPSSSLGTQTYICNVNHKPSNTKVDKKVEPKSCDKTHTCPPCPAPELLGGDSVFLFPPKPKDTLYISRTPEVTCVVVDVSHEDPEVKFNWYVDGVEVHNAKTKPREEQYNSTYRVVSVLTVLHQDWLNGKEYKCKVSNKALPAPIEKTISKAKGQPREPQVYTLPPSRDELTKNQVSLTCLVKGFYPSDIAVEWESNGQPENNYKTTPPVLDSDGSFFLYSKLTVDKSRWQQGNVFSCSVMHEALHYHYTQKSLSLSP
light: not shown
notes: IL6R-F11 (IL6R-G1d with M252Y/N434Y) with P238D
B2: IL6R-PD094/IL6R-L (antibody, human IgG1, kappa)
heavy: B1 heavy with G239W
light: not shown
notes: PD variant; alterations introduced into IL6R-F11
B3: IL6R-PD080/IL6R-L (antibody, human IgG1, kappa)
heavy: B1 heavy with G239D
light: not shown
notes: as for B2
B4: IL6R-PD097/IL6R-L (antibody, human IgG1, kappa)
heavy: B1 heavy with S241D
light: not shown
notes: as for B2
B5: IL6R-PD079/IL6R-L (antibody, human IgG1, kappa)
heavy: B1 heavy with G239A
light: not shown
notes: as for B2
B6: IL6R-PD082/IL6R-L (antibody, human IgG1, kappa)
heavy: B1 heavy with G239F
light: not shown
notes: as for B2
B7: IL6R-PD095/IL6R-L (antibody, human IgG1, kappa)
heavy: B1 heavy with G239Y
light: not shown
notes: as for B2
B8: IL6R-PD081/IL6R-L (antibody, human IgG1, kappa)
heavy: B1 heavy with G239E
light: not shown
notes: as for B2
B9: IL6R-PD043/IL6R-L (antibody, human IgG1, kappa)
heavy: B1 heavy with L236Y
light: not shown
notes: as for B2
B10: IL6R-PD087/IL6R-L (antibody, human IgG1, kappa)
heavy: B1 heavy with G239M
light: not shown
notes: as for B2
B11: IL6R-PD086/IL6R-L (antibody, human IgG1, kappa)
heavy: B1 heavy with G239L
light: not shown
notes: as for B2
B12: IL6R-BP142/IL6R-L (antibody, human IgG1, kappa)
heavy: B1 heavy with Y254M, K328N, Y436N, K441E
light: not shown
notes: Alterations introduced into IL6R-B3
B13: IL6R-BP119/IL6R-L (antibody, human IgG1, kappa)
heavy: B1 heavy with Y254M, K328M, Y436N, K441E
light: not shown
notes: as for B12
B14: IL6R-BP121/IL6R-L (antibody, human IgG1, kappa)
heavy: B1 heavy with Y254M, K328Q, Y436N, K441E
light: not shown
notes: as for B12
B15: IL6R-BP118/IL6R-L (antibody, human IgG1, kappa)
heavy: B1 heavy with Y254M, K328S, Y436N, K441E
light: not shown
notes: as for B12
B16: IL6R-BP126/IL6R-L (antibody, human IgG1, kappa)
heavy: B1 heavy with Y254M, K328L, Y436N, K441E
light: not shown
notes: as for B12
B17: IL6R-BP911/IL6R-L (antibody, human IgG1, kappa)
heavy: B1 heavy with Y254M, A332K, Y436N, K441E
light: not shown
notes: as for B12
B18: IL6R-BP912/IL6R-L (antibody, human IgG1, kappa)
heavy: B1 heavy with Y254M, A332R, Y436N, K441E
light: not shown
notes: as for B12
B19: IL6R-BP136/IL6R-L (antibody, human IgG1, kappa)
heavy: B1 heavy with Y254M, K328A, Y436N, K441E
light: not shown
notes: as for B12
B20: IL6R-BP117/IL6R-L (antibody, human IgG1, kappa)
heavy: B1 heavy with Y254M, K328D, Y436N, K441E
light: not shown
notes: as for B12

Molecular target: T1, FcγRIIa type R extracellular domain …
Assay: SPR binding amount, relative to IL6R-F652/IL6R-L

Compared with B1, B2 is higher in “relative binding activity to FcγRIIaR (IL6R-F652/IL6R-L = 100)” value (shortened to “relative binding activity to FcγRIIaR”): 100 for the first, 593 for the second.

First: B3
Second: B4
The “relative binding activity to FcγRIIaR” value of the first is lower: 222 for the first, 844 for the second.

Going from B5 to B6, the “relative binding activity to FcγRIIaR” value rises from 138 to 380.

First: B7
Second: B8
The “relative binding activity to FcγRIIaR” value of the first is higher: 543 for the first, 117 for the second.

First: B9
Second: B10
The “relative binding activity to FcγRIIaR” value of the first is lower: 175 for the first, 196 for the second.

For B11, the “relative binding activity to FcγRIIaR” value was 268.

molecular target: T2, FcγRIIb extracellular domain with …; assay: SPR binding amount, relative to IL6R-F652/IL6R-L

First: B1
Second: B2
The “relative binding activity to FcγRIIb (IL6R-F652/IL6R-L = 100)” value (shortened to “relative binding activity to FcγRIIb”) of the first is lower: 100 for the first, 122 for the second.

First: B3
Second: B4
The “relative binding activity to FcγRIIb” value of the first is lower: 127 for the first, 139 for the second.

Going from B5 to B6, the “relative binding activity to FcγRIIb” value rises from 101 to 108.

Going from B7 to B8, the “relative binding activity to FcγRIIb” value falls from 124 to 101.

Going from B9 to B10, the “relative binding activity to FcγRIIb” value falls from 112 to 109.

With B11 the “relative binding activity to FcγRIIb” value was 112.

molecular target: T4, FcγRIa extracellular domain with C-terminal His tag (human, UniProt P12314 16-292); assay: SPR binding amount, relative to IL6R-BF648/IL6R-L
T4 construct: also called FcgRIa; not shown: His tag attached to the C terminus
T4 sequence (P12314 16-292): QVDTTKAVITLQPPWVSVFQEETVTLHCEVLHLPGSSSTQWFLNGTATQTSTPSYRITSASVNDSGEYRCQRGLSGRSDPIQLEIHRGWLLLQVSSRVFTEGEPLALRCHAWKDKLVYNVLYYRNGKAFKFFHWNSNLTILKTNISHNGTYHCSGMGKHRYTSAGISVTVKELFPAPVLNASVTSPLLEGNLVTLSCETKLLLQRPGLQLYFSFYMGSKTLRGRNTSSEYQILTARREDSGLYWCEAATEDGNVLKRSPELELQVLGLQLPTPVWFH

Going from B12 to B13, the “relative binding activity (IL6R-BF648/IL6R-L = 100)” value rises from 98 to 117.

Going from B14 to B15, the “relative binding activity (IL6R-BF648/IL6R-L = 100)” value falls from 118 to 101.

Going from B16 to B17, the “relative binding activity (IL6R-BF648/IL6R-L = 100)” value falls from 113 to 52.

First: B18
Second: B19
The “relative binding activity (IL6R-BF648/IL6R-L = 100)” value of the first is lower: 60 for the first, 117 for the second.

With B20 the “relative binding activity (IL6R-BF648/IL6R-L = 100)” value was 124.

molecular target: T2, FcγRIIb extracellular domain with …; assay: SPR binding amount, relative to IL6R-BF648/IL6R-L

Compared with B12, B13 is higher in “relative binding activity (IL6R-BF648/IL6R-L = 100)” value: 106 for the first, 110 for the second.

Compared with B14, B15 is lower in “relative binding activity (IL6R-BF648/IL6R-L = 100)” value: 113 for the first, 104 for the second.

Going from B16 to B17, the “relative binding activity (IL6R-BF648/IL6R-L = 100)” value rises from 103 to 119.

Compared with B18, B19 is higher in “relative binding activity (IL6R-BF648/IL6R-L = 100)” value: 103 for the first, 119 for the second.

B20 was tested, and the “relative binding activity (IL6R-BF648/IL6R-L = 100)” value was 118.

molecular target: T3, FcγRIIa type H extracellular domain …; assay: SPR binding amount, relative to IL6R-BF648/IL6R-L

First: B12
Second: B13
The “relative binding activity (IL6R-BF648/IL6R-L = 100)” value of the first is lower: 97 for the first, 133 for the second.

Compared with B14, B15 is lower in “relative binding activity (IL6R-BF648/IL6R-L = 100)” value: 135 for the first, 128 for the second.

First: B16
Second: B17
The “relative binding activity (IL6R-BF648/IL6R-L = 100)” value of the first is higher: 132 for the first, 108 for the second.

Going from B18 to B19, the “relative binding activity (IL6R-BF648/IL6R-L = 100)” value rises from 93 to 103.

For B20, the “relative binding activity (IL6R-BF648/IL6R-L = 100)” value was 96.
